# Experimental data reported in patent publication US20230086530A1 (SHANGHAI ESCUGEN BIOTECHNOLOGY, published 2023).
# Where two headings read alike, the source gives them in different places.
# B1: control antibody 5F9 (antibody, human IgG4 S228P, kappa)
# heavy: not shown
# light: DVLMTQTPLSLPVSLGDQASISCRSSQSIVYSNGNTYLGWYLQKPGQSPKLLIYKVSNRFSGVPDRFSGSGSGTDFTLKISRVEAEDLGVYHCFQGSHVPYTFGGGTKVEIKRTVAAPSVFIFPPSDEQLKSGTASVVCLLNNFYPREAKVQWKVDNALQSGNSQESVTEQDSKDSTYSLSSTLTLSKADYEKHKVYACEVTHQGLSSPVTKSFNRGEC
# notes: also called 5F9 antibody
# B2: DX-36698 VHH single-domain antibody (VHH)
# VHH: QVQLVESGGGLVQAGGSLRLSCAASVRTFSIYAMGWFRQAPGKDREFVGAISGRGYTTYYVDSVKGRFTISRDNAKNTVYLQMNSLKPEDTAVYYCAADLYGSRRYADRESYDYWGQGTQVTVSS
# notes: purified from E. coli (NiNTA)
# B3: DX-36699 VHH single-domain antibody (VHH)
# VHH: DVQLQASGGGSVEAGGSLTLSCLASGFYNMRWYRQAPGNERELVARIGIGGSTDYADSVKGRFTISRGNAKNMVHLQMNSLKPEDTAVYYCWGGGYWGQGTQVTVSS
# notes: purified from E. coli (NiNTA)
# What was measured:
# [1] = biological target: T1, CD47 on cynomolgus macaque erythrocytes (cynomolgus macaque, UniProt A0A5F8AK49 19-323 (rhesus entry)); assay: flow cytometry on cynomolgus macaque erythrocytes of 4 animals
# T1 construct: whole, on cells
# [2] = biological target: T2, CD47 on human erythrocytes (human, UniProt Q08722 19-323); assay: flow cytometry, human erythrocytes, second individual
# T2 construct: whole, on cells; Kept apart from m1 because the same antibodies behave differently on these cells
# [3] = biological target: T2, CD47 on human erythrocytes; assay: flow cytometry, human erythrocytes, first individual
# [4] = biological target: T3, Human CD47 recombinant protein (Human CD47 His Tag), ACRO Biosystems Cat. No. CD7-H5227 (human, UniProt Q08722 19-139); assay: SPR BIAcore 8K, antibody captured by anti-human IgG Fc on CM5, huCD47 (His tag) in flow, 25 C, 1:1 model
# T3 construct: bought protein; also called huCD47-His; huCD47; not shown: His tag
# Protocol: The binding time of the huCD47 to the antibody was 180 s, the dissociation time was 900 s, and the reaction temperature was 25° C. The binding constant ka, the dissociation constant kd and the affinity KD were calculated by FitGlobal using BIAcore 8K Evaluation software (GE Healthcare) according to the 1:1 binding model.
# [5] = biological target: T4, biotinylated-CD47 (ACRO Biosystems Cat. No. CD7-H82E9) (UniProt Q08722 19-139, biotinylated (site not stated)); assay: competition ELISA; blocked: biotinylated-CD47 binding to coated SIRPα-His
# T4 construct: also called CD47 recombinant protein
# Protocol: After rinsing 4 times with PBST, 200 μl of PBS+1% BSA was added to each well, blocking for 1 h at room temperature, and rinsing 4 times with PBST. […] The 96-well plate was rinsed 4 times with PBST, 100 μl of Steptavidin-HRP (Invitrogen #434323) diluted 1:2500 was added to each well, and incubated at room temperature for 1 h. After rinsing the 96-well plate four times with PBST, 100 μl of TMB substrate (Cell Signaling, Cat. No. 7004) was added to each well, and after color development at room temperature for 10 mins, 50 μl of stop solution was added to stop the reaction.
# [6] = biological target: T2, CD47 on human erythrocytes; assay: flow cytometry, human erythrocytes
# CD47 on human platelets [7] = biological target: T5, CD47 on human platelets (human, UniProt Q08722 19-323); assay: flow cytometry, human platelets
# T5 construct: whole, on cells
# Protocol: (§1) After the platelets were counted with a hemocytometer, the density of the platelets was adjusted to 1.5×10⁷/mL with PBS+1% FBS, and 100 μL of above sample was added to each well of a 96-well U-shaped plate. […] After incubating at 4° C. for 1 h, the samples were centrifuged at 1000 rpm for 3 mins and rinsed once with PBS+1% FBS. 100 μl of 1:1000 diluted goat anti-human IgG (H+L)-AlexaFluor488 (purchased from eBioscience, Cat. No. A11013) was added to each well, and incubated at 4° C. for 45 mins. The samples were centrifuged at 1000 rpm for 3 mins, rinsed twice with PBS+1% FBS, resuspended in 200 μl of PBS+1% FBS, and transferred to a flow tube for on-board detection.
# [8] = biological target: T6, CD47 on cynomolgus macaque platelets (cynomolgus macaque, UniProt A0A5F8AK49 19-323 (rhesus entry)); assay: flow cytometry, cynomolgus macaque platelets, animal 194#
# T6 construct: whole, on cells
# [9] = biological target: T6, CD47 on cynomolgus macaque platelets; assay: flow cytometry, cynomolgus macaque platelets, animal 186#
# [10] = biological target: T6, CD47 on cynomolgus macaque platelets; assay: flow cytometry, cynomolgus macaque platelets, animal 567#
# CD47 on human platelets [11] = biological target: T5, CD47 on human platelets; assay: flow cytometry, human platelets; remark: listed apart in the source
# Protocol: as §1
# [12] = biological target: T7, human CD47 on the cell membrane surface of CD47 positive tumor cells (Raji, NUGC-4, Jurkat) (human, UniProt Q08722 19-323); assay: FACS on Raji cells, VHH 5 µg/mL
# T7 construct: whole, on cells; also called huCD47 on the cell membrane surface; cell surface CD47
# Protocol: (§2) Antibodies that can bind to CD47 positive cells were screened by flow cytometry (FACS). Human Burkitt's lymphoma cells Raji (purchased from the Cell Bank of the Chinese Academy of Sciences, Cat. No. TCHu 44) were cultured in RPMI-1640 medium (purchased from Gibco, Cat. No. 11875-093) comprising 10% fetal bovine serum FBS (purchased from Gibco, Cat. No. 1009141) at 37° C. with 5% CO₂.
# (§3) Raji cells were collected by centrifugation at 800 rpm for 3 mins, rinsed once with PBS+1% FBS and resuspended for counting. In a 96-well plate, 1×10⁵ Raji cells were added to each well, and then the VHH (purified) samples were added in a gradient dilution. The final concentrations of VHH were 5, 0.5, and 0.05 μg/mL, respectively. After mixing, it was mixed with Raji cells and incubateed at room temperature for 1 h. Raji cells were collected by centrifugation at 1400 rpm for 3 mins. […] The cells were rinsed twice with PBS+1% FBS and analyzed on an iQuePlus flow cytometer.
# (§4) The mean fluorescence intensity (MFI) of the control well with only fluorescent secondary antibody was used as the mean fluorescence intensity of the background value, and the multiple of the mean fluorescence intensity of the sample and the mean fluorescence intensity of the background value was used to evaluate the binding strength of the VHH single-domain antibody to Raji cells.
# [13] = biological target: T3, Human CD47 recombinant protein (Human …); assay: competition ELISA: huCD47-His coated, VHH against 5 nM SIRPα-mIgG1
# Protocol: 100 μl of 1 μg/mL huCD47-His antigen (purchased from ACRO Biosystems, Cat. No. CD7-H5227) was add to a 96-well plate, and coated overnight at 4° C. The plate was washed three times with 250 μl of PBST, and added 100 μl of purified VHH to the final concentrations of 500, 50, 5, and 0.5 nM, respectively, and incubated at room temperature for 1 h. […] After washing the plate three times with PBST, goat anti-mouse HRP-conjugate (purchased from Invitrogen, Cat. No. 31430) diluted 1:5000 was added and incubated for 45 mins. After washing the plate three times with 250 μl of PBST, TMB (purchased from Cell Signaling Technology, Cat. No. 7004) as a chromogenic substrate was added and developed color for 10 mins. After quenching the reaction with 0.5M HCl, data was read on a microplate reader.
# [14] = biological target: T7, human CD47 on the cell membrane surface …; assay: FACS on Raji cells, VHH 0.05 µg/mL
# Protocol: as §2, §3, §4
# [15] = biological target: T7, human CD47 on the cell membrane surface …; assay: FACS on Raji cells, VHH 0.5 µg/mL
# Protocol: as §2, §3, §4
Binder,EC50 [1] [µg/mL],EC50 (read off the curve) [2] [µg/mL],EC50 (read off the curve) [3] [µg/mL],Kd [4] [nM],koff [4] [s⁻¹],kon [4] [M⁻¹ s⁻¹],IC50 (read off the curve) [5] [µg/mL],EC50 (read off the curve) [6] [nM],EC50 (read off the curve) (CD47 on human platelets [7]) [µg/mL],EC50 (read off the curve) [8] [µg/mL],EC50 (read off the curve) [9] [µg/mL],EC50 (read off the curve) [10] [µg/mL],EC50 (read off the curve) (CD47 on human platelets [11]) [µg/mL],Mean fluorescence intensity (multiple) [12] [fold],IC50 [13] [nM],Mean fluorescence intensity (multiple) [14] [fold],Mean fluorescence intensity (multiple) [15] [fold]
B1,0.01 to 0.03,~0.02,~0.03,7.68,0.055,7.16e+06,~0.3,~2,~0.8,~0.3,~0.3,~0.5,~0.02,–,–,–,–
B2,–,–,–,–,–,–,–,–,–,–,–,–,–,204,616,43.5,142
B3,–,–,–,–,–,–,–,–,–,–,–,–,–,152,15,27.2,61.4
